Paper PMC8219681, “Inhibition of MRN activity by a telomere protein motif” (Nature Communications, 2021)

T1: Rad50S (S. cerevisiae Rad50-K81I, FLAG-tagged at the C terminus) (S. cerevisiae, UniProt P12753 1-1312, K81I)
T1 construct: Rad50, Saccharomyces cerevisiae, K81I
T1 sequence (looked up): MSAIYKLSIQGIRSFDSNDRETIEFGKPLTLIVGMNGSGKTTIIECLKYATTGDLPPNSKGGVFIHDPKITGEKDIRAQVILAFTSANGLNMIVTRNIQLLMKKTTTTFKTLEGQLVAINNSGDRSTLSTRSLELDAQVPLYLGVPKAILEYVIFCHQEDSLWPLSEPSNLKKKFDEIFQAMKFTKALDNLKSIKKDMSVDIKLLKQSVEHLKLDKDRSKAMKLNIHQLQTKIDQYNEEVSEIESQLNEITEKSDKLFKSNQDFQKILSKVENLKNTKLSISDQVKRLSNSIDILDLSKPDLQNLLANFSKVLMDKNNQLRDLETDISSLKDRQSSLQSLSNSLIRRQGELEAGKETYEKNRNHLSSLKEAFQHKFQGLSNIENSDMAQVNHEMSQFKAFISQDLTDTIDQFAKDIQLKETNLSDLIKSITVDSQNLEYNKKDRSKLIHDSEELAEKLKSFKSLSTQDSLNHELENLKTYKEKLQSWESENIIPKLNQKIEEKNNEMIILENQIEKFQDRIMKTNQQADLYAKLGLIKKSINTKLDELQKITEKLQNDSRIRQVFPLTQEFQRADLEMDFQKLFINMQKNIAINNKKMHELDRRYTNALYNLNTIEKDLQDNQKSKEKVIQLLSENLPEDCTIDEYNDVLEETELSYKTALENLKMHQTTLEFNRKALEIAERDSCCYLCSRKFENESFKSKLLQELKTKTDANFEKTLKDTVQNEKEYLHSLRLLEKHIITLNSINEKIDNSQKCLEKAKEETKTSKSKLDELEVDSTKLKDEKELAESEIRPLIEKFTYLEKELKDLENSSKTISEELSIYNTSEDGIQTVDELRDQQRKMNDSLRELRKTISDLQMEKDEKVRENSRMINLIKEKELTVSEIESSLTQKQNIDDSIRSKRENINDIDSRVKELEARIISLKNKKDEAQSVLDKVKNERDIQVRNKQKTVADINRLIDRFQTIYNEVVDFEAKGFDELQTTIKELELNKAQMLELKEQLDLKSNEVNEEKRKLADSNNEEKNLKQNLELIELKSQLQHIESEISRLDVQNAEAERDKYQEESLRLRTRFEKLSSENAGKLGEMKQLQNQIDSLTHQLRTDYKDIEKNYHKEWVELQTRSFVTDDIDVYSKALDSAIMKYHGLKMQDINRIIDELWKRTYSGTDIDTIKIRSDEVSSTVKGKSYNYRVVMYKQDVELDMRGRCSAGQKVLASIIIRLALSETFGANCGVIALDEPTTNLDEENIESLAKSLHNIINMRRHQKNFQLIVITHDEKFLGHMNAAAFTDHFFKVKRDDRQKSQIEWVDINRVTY

T2: Xrs2 (S. cerevisiae, FLAG-tagged at the C terminus) (S. cerevisiae, UniProt P33301 1-854)
T2 construct: Xrs2, Saccharomyces cerevisiae; also called Xrs2-FLAG; not shown: FLAG, C-terminal, kept
T2 sequence (looked up): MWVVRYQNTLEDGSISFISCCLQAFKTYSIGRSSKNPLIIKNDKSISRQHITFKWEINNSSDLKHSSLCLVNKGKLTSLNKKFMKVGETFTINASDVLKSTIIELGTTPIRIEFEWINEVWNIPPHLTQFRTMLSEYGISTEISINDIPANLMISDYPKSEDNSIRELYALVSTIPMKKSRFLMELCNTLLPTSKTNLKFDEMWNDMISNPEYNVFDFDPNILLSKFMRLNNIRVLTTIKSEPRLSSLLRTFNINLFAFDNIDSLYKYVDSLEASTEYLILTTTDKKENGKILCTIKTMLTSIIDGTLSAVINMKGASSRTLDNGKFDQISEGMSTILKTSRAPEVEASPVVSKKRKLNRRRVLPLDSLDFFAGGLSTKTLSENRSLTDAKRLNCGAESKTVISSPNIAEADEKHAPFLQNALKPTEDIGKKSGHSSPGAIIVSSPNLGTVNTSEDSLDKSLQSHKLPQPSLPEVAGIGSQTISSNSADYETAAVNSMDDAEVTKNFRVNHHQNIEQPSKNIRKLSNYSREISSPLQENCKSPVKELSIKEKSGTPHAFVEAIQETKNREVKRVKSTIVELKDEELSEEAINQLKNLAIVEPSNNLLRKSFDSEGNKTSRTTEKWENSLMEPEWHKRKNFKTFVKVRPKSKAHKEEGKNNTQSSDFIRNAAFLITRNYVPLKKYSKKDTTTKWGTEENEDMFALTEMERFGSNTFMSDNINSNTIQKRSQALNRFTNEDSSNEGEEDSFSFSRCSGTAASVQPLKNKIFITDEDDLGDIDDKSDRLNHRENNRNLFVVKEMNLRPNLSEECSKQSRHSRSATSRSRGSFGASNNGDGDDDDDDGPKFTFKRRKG


How the values were obtained:
[1] = target: T1, Rad50S (S. cerevisiae Rad50-K81I, …); assay: pull-down; MBP-Rif2 or MBP-Rif2-min immobilised on amylose resin, washed with 1 M NaCl buffer then 150 mM NaCl; 750 ng Rad50 or Rad50-K81I added for 1 h at 4 °C in wash buffer with 150 mM NaCl; Western blot with anti-Rad50; settings: both partners purified
[2] = target: T2, Xrs2 (S. cerevisiae, FLAG-tagged at the …); assay: pull-down; MBP-Rif2 or MBP-Rif2-min (~5 ug, from Sf9 lysate) immobilised on amylose resin and washed; 1 ug Mre11, 500 ng Rad50 or 1 ug Xrs2 added for 1 h in 50 mM Tris-HCl pH 7.5, 200 mM NaCl, 0.2% NP40, 2 mM EDTA; eluted with 20 mM maltose; Western blot; settings: both partners purified

| binding result [1] | binding result [2] | Binder |
| --- | --- | --- |
| binds | binds | MBP-Rif2 (S. cerevisiae Rif2, wild type) (natural protein, UniProt Q06208 1-395, looked up, Rif2, Saccharomyces cerevisiae, full length, expressed from the vector pFB-MBP-Rif2-his; MBP was cleaved with PreScission protease only after elution from the resin; N-terminal place of MBP is read from the construct's name MBP-Rif2-his; also called ScRif2; not shown: MBP, N-terminal, kept) MEHVDSDFAPIRRSKKVVDSDKIVKAISDDLEQKNFTVLRKLNLVPIKKSVSSPKVCKPSPVKERVDHVFYQKFKSMALQELGTNYLSISYVPSLSKFLSKNLRSMKNCIVFFDKVEHIHQYAGIDRAVSETLSLVDINVVIIEMNDYLMKEGIQSSKSKECIESMGQASYSGQLDFEASEKPSNHTSDLMMMVMRKINNDESIDHIVYFKFEQLDKLSTSTIIEPSKLTEFINVLSVLEKSNNIAFKVLIYSNNVSISSLLSTSLKKKLNTKYTVFEMPILTCAQEQEYLKKMIKFTFDSGSKLLQSYNSLVTCQLNNKESNLAIFFEFLKVFPHPFTYLFNAYTEIIVQSRTFDELLDKIRNRLTIKNYPHSAYNFKKNQRLPLKLTRKVHDR |
| binds | binds | MBP-Rif2-min (S. cerevisiae Rif2 F8E P10N) (natural protein, UniProt Q06208 1-395, looked up, Rif2, Saccharomyces cerevisiae, full length, F8E P10N, expressed from the vector pFB-MBP-Rif2-min-his; MBP was cleaved with PreScission protease only after elution from the resin; N-terminal place of MBP is read from the construct's name; also called mutant Rif2; not shown: MBP, N-terminal, kept) MEHVDSDEANIRRSKKVVDSDKIVKAISDDLEQKNFTVLRKLNLVPIKKSVSSPKVCKPSPVKERVDHVFYQKFKSMALQELGTNYLSISYVPSLSKFLSKNLRSMKNCIVFFDKVEHIHQYAGIDRAVSETLSLVDINVVIIEMNDYLMKEGIQSSKSKECIESMGQASYSGQLDFEASEKPSNHTSDLMMMVMRKINNDESIDHIVYFKFEQLDKLSTSTIIEPSKLTEFINVLSVLEKSNNIAFKVLIYSNNVSISSLLSTSLKKKLNTKYTVFEMPILTCAQEQEYLKKMIKFTFDSGSKLLQSYNSLVTCQLNNKESNLAIFFEFLKVFPHPFTYLFNAYTEIIVQSRTFDELLDKIRNRLTIKNYPHSAYNFKKNQRLPLKLTRKVHDR |
